One molecule from US20250382362A1 (UNIVERSIT TSKLINIKUM REGENSBURG, published 2025) can be followed below.

For one experiment, the target named is T1, human IL3 (human, UniProt P08700 20-152).
T1 sequence: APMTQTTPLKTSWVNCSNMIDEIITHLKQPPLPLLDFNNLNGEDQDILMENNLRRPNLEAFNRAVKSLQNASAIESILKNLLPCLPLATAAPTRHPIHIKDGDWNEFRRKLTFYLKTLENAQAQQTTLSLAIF
As to the kind of experiment: cell-based or functional assay.

The target of experiment [1] is T2, IL3 peptide, amino acids 26-48 (mature) / 45-67 (native) (human).
T2 construct: Peptide in which amino acids 22-25 are deleted
T2 peptide: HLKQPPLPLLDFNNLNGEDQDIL
The experiment in a line: ELISA on coated linear IL3 peptide. As for the experimental part: (§1) Peptides were coated overnight in PBS in Nunclon 96 Flat Bottom Transparent Polystyrol plates (Thermo Fisher) at a concentration of 10 μg/ml (60 μl/well). Then […] were washed three times with wash buffer (0.05% Tween 20 in PBS), followed by blocking for 2 hours at room temperature with 1% BSA/PBS. After another washing step with wash buffer, antibody GRT002-H16L2 was added (60 μl of a 10 μg/ml solution in 1% BSA/PBS) and incubated for 1 hour at room temperature. 1% BSA/PBS served as a control. After another washing step, GRT002-H16L2 was incubated with a secondary antibody (HRP-conjugated AffinePure fragment goat anti-human IgG; Jackson Immuno Research) for 1 hour at room temperature. After a final washing step, 100 μl of ABTS (2,2′-azino-bis(3-ethylbenzothiazoline-6-sulfonic acid) was added to each well. Absorption was measured in a infinite 200Pro reader (Tecan) at 405 nm.
On the technique in general: ELISA stands for enzyme-linked immunosorbent assay.

The target of experiment [2] is T3, IL3 peptide, amino acids 28-48 (mature) / 47-67 (native) (human).
T3 construct: Peptide in which amino acids 22-27 are deleted
T3 peptide: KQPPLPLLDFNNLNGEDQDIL
As to the kind of experiment: ELISA on coated linear IL3 peptide. As for the experimental part: as §1

The target of experiment [3] is T4, IL3 peptide, amino acids 22-48 (mature) / 41-67 (native) (human).
T4 construct: Linear peptide derived from human IL3, coated on the plate
T4 peptide: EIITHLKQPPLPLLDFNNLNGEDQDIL
The experiment in a line: ELISA on coated linear IL3 peptide. As for the experimental part:
as §1

B1: GRT002-H16L2 (antibody, human IgG1, kappa, V domains shown)
VH: QVQLVQSGAEVKKPGASVKVSCKGSGFTFTDYALHWVRQAPGQRLEWMGLISTYYGDTTYNQRFKGRVTMTVDKSTSTAYMELSSLRSEDTAVYYCVITTVAGTDAMDYWGQGTLVTVSS
VL: DIQMTQSPSSLSASVGDRVTITCHASQNINVWLSWYQQKPGKAPKLLIYKASNLHTGVPSRFSGSGSGTDFTFTISSLQPEDIATYYCQQGYSYPYTFGGGTKLEIKR
notes: IgG1 of the G1m3 (heavy chain) and KM3 (light chain) allotype, lacks the C-terminal lysine; also called HC16 × LC2; humanized derivative of antibody P8C11
With B1, the “Inhibitory activity (block of IL-3 induced downregulation of CD131 on primary human basophils; chimeric P8C11 normalized to 100%)” value in the experiment with human IL3 came out at 100%. The binding result in experiment [1], in experiment [2] and in experiment [3] was “binds” throughout.
